Laboratory results reported in US20260258115A1 (MAPP BIOPHARMACEUTICAL, published 2026).

What was measured:
[1] = target: RSV postfusion F (postF), F ΔFP (Respiratory syncytial virus, UniProt P03420 26-513); assay: BLI, IgG on anti-human IgG sensor, 100 nM antigen
[2] = target: RSV prefusion F (preF), DS-Cav1 (Respiratory syncytial virus, UniProt P03420 26-513); assay: BLI, IgG on anti-human IgG sensor, 100 nM antigen
RSV F on RSV-A2 virus = RSV F on RSV-A2 virus (Respiratory syncytial virus, RSV-A2, UniProt P03420 26-574); assay: cell-based or functional assay

B1: ADI-41554 (antibody, V domains shown)
VH: EVQLVESGGGLVQPGGSLRLSCAASGFTFSSYPMNWVRQGPGKGLEWVSSISSSGASPYYADSVKGRFTISRDNSKNTLYLQMNSLRADDTAVYYCAREDYYYYYMDVWGKGTTVTVSS
VL: ETTLTQSPSTLSASVGDRVTITCRASESISSWLAWYQQKPGKAPKLLIFKASTVQSGVPSRFSGSGSGTEFTLTISSLQPDDFATYYCQQYNSYLLTFGGGTKVEIK
notes: also called Ab 836; Antibody Number 836
- Kd [1]: 1.07 nM
- Kd [2]: 1.35 nM
- Neutralization IC50 (RSV subtype A) (RSV F on RSV-A2 virus): > 25 mg/L

B2: ADI-41720 (antibody, V domains shown)
VH: QVQLVESGGGVVQPGRSLRLSCAASGFTFSSYGMHWVRQAPGKGLEWVSVIWFDGSKKYYEDSVKGRFTISRDNSKNTLYLEMNSLRAEDTAVYYCAREAPVRLGELSLYGYFDYWGQGTLVTVSS
VL: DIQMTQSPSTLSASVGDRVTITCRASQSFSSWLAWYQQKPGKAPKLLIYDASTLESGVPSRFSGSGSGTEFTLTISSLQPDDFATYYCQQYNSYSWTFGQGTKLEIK
notes: also called Ab 896; Antibody Number 896
- Kd [1]: 1.17 nM
- Kd [2]: 22 nM
- Neutralization IC50 (RSV subtype A) (RSV F on RSV-A2 virus): > 25 mg/L

B3: ADI-41799 (antibody, V domains shown)
VH: QVQLVQSGAEVKKPGSSVKVSCQASGGTFSTHALSWVRQTPGHGLEWVGGVLPVFGATKYPRKFQGRVTITADKSTNTAYMELSSLRSDDTAVYYCARVVVHSTITTAKDFFSGVHDIWGQGTMVTVSS
VL: DIRMTQSPSTLSASVGDRVTITCRASQTVSSWLAWYQQKPGKAPKLLIYQASSLESGVPSRFSGSGSGTEFTLTISGLQPDDFATYFCQHYNSYSPVTFGGGTKVEIK
notes: also called Ab 910; Antibody Number 910
- Kd [1]: 1.1 nM
- Kd [2]: 3.28 nM
- Neutralization IC50 (RSV subtype A) (RSV F on RSV-A2 virus): > 25 mg/L

B4: ADI-41552 (antibody, V domains shown)
VH: EVQLLESGGGLVQPGGSLRLSCAASGFTFSPYSMNWVRQAPGKGLEWVSYISRSGSFKYYADSVKGRFTISRDDAKNSLYLHMNSLRDDDTAVYYCVSYCSSATCHQRFDYWGQGTLVTVSS
VL: EIVLTQSPATLSLSPGERATLSCRASQSVNSYLAWYQQKPGQAPRLLIYDASNRATGIPARFSGSGSGTDFTLTISSLEPEDFAVYYCQERNSWPKLTFGGGTKVEIK
- Kd [1]: 0.522 nM
- Kd [2]: 3.44 nM
- Neutralization IC50 (RSV subtype A) (RSV F on RSV-A2 virus): > 25 mg/L

B5: ADI-41808 (antibody, V domains shown)
VH: QVQLVQSGAELKKPGSSVRISCKVSGVTSDNYAITWVRQAPGQGLEWMGRVIPIFPVPQYAQKFQGRVTLSADKSTRTAYLELHSLRSEDTATYYCATHRPSDSWGQGTLVTVSS
VL: DIRVTQSPSTLSASVGDRVTITCRASQNINSWLAWYQQKPGKAPKLLIFKASSLESGVPARFSGSGFGTEFTLTITSLQPDDFASYYCQQYDTYPYPFGQGTKVEIK
notes: also called Ab 916; Antibody Number 916
- Kd [1]: 22.5 nM
- Kd [2]: 13.9 nM
- Neutralization IC50 (RSV subtype A) (RSV F on RSV-A2 virus): > 25 mg/L

B6: ADI-41811 (antibody, V domains shown)
VH: QVQLQQSGPRLVKPSHTLSLTCVISGDSVSSGSAAWSWIRQSPSRGLEWLGRTYYRSKWYYDYAVSVKGRIIIQPDTSKNQFSLQLNSVSPEDTAVYYCARDPDSGNYFHYYGMDVWGQGTTVTVSS
VL: DIVMTQSPATLSLSPGERATLSCRASQSVDVYFAWYQQKPGQAPRLLIYDASKRASGVPARFSGSASGTDFTLTISSLEPEDFAVYYCQQRAKWPPYTFGQGTKLEIK
- Kd [1]: 0.744 nM
- Kd [2]: 1.64 nM
- Neutralization IC50 (RSV subtype A) (RSV F on RSV-A2 virus): > 25 mg/L

B7: ADI-41701 (antibody, V domains shown)
VH: QVQLVQSGAEVKKPGESLKISCQASGYSFTTYWIGWVRQTPGKGLEWMGIIYPGDSDTRYTPSFQGQVTISADKSISTAYLHWSSLKASDTAMYYCARLSGGYTFGFDYWGLGTLVTVSS
VL: NFMLTQPHSVSESPGKTVTISCTRSSGNIARYYVQWYQQRPGRAPTTVIYEDDQRPSGVPDRFSGSIDRSSNSASLTISGLKTEDEADYYCQSYDASNYVFATGTKVTVL
- Kd [1]: 0.289 nM
- Kd [2]: 1.93 nM
- Neutralization IC50 (RSV subtype A) (RSV F on RSV-A2 virus): > 25 mg/L

B8: ADI-41807 (antibody, V domains shown)
VH: EVQLLESGPALVKPTQTLTLTCTFSGFSLTTTRMSVSWIRQPPGKALEWLARIDWDDDKYYSTSLKTRLTISKDTSKNQVVLTMTNMDPVDTATYFCARVNVYAANGYYSYYLDYWGQGTLVTVSS
VL: DIVMTQTPSSLSASVGDRVTITCRTSQSSSRYLNWYQKEPGKAPRLLIYLASALRSGVPSRFSGSGSGTDFTLTISSLQSEDFATYYCQQTYSIPWTFGQGTKVEIK
- Kd [1]: 1.19 nM
- Kd [2]: 1.5 nM
- Neutralization IC50 (RSV subtype A) (RSV F on RSV-A2 virus): > 25 mg/L

B9: ADI-41778 (antibody, V domains shown)
VH: QVQLVESGGGQGQPGRSLRLSCAASGFTFDDYAMHWVRQVPGKGLEWVSGINWNSGYIGYADSVKGRFTISRDNAKNSLYLQMNSLRAEDTALYYCAKANNPIDSSGYNRGFDTWGQGTLVTVSS
VL: QSALTQPRSVSGSPGQSVTISCTGTSSDVGGYNYVSWYQQHPGKAPKLMIYDVNKRPSGVPDRFSGSKSDNTASLTISGLQAEDESDYFCCSYAGTYTWVFGGGTKVTVL
- Kd [1]: 0.504 nM
- Kd [2]: 2.75 nM
- Neutralization IC50 (RSV subtype A) (RSV F on RSV-A2 virus): > 25 mg/L

B10: ADI-41557 (antibody, V domains shown)
VH: EVQLLESGPGLVKPSETLSLTCNVSGGSISSYYWSWIRQSPGKGLEWIGHIYDTGYTNYNPSLKSRVTMSVDTSKNRFSLKLDSVTAADTAVYYCARGRGWRNLYNWFDPWGQGTLVTVSS
VL: DIVMTQSPATLSVSPGERATLSCRTSQSFSSMLAWYQQKPGQAPRLLIYGASTRATGIPARFSGSGSATEFTLTISNLQSEDVAVYYCQQYNSWPLTFGGGTKVEIK
notes: also called Ab 839; Antibody Number 839
- Kd [1]: 86.1 nM
- Kd [2]: 30.9 nM
- Neutralization IC50 (RSV subtype A) (RSV F on RSV-A2 virus): > 25 mg/L

B11: ADI-41703 (antibody, V domains shown)
VH: EVQLLESGSGLVKPLQTLSLTCAVSGGSISSGGYSWSWIRQPPGKGLEWIGYIYPSGSTYYNPSLKSRVTMSIDRSKNQFSLRLTSVTAADTAVYYCARGDGNDFWSADSSHAFAIWGQGTMVTVSS
VL: EIVMTQSPGTLSLSPGERATLSCRASQIVGNSYLAWYQQKPGQAPRLLIYGASSRATGIPERFSGSGSGTDFTLTISRLEPEDFAVYHCQQYGSSPWTFGQGTKVEIK
notes: also called Ab 895; Antibody Number 895
- Kd [1]: 0.843 nM
- Kd [2]: 4.2 nM
- Neutralization IC50 (RSV subtype A) (RSV F on RSV-A2 virus): > 25 mg/L

B12: ADI-41737 (antibody, V domains shown)
VH: QVQLQESGPGLVKPSQTLSLTCTVSGGSMISGDFYWSWIRQPPGKGLEWIGYIYYSGTTYYSPSLKSRVSMSIDTSKSQFSLKLSSVTAADTAVYYCARKYSYGEKAYHYWGQGTLVTVSS
VL: EIVLTQSPGTLSLSPGERATLSCRASQTVGNNYLAWYQQKPGQAPRLLIYGASSRATGIPDRFSGSGSGTDFTLTISRLESEDFAVYHCHQYGTSPQTFGQGTKVEIK
notes: also called Ab 897; Antibody Number 897
- Kd [1]: 1.58 nM
- Kd [2]: 3.58 nM
- Neutralization IC50 (RSV subtype A) (RSV F on RSV-A2 virus): > 25 mg/L

B13: ADI-41804 (antibody, V domains shown)
VH: QVQLQQWGAGLLKPSETLSLTCSVLGGSFSGYYWTWIRQPPGKGLEWIGEITHDGSSNYNPSLNSRVTISVDTSNYQFSLKMRSVTAADTAVYYCARSPDLTIFGGLYFYYGISVWGQGTTVTVSS
VL: DIQMTQSPSSLSASMGDRVTITCRASQDISNYLAWYQQKPGKVPNLLIYAASTLQGGVPSRFSGSGSGTDFTLTISSLQPEDVAIYYCQKYKSAPRTFGQGTKVEIK
- Kd [1]: 0.436 nM
- Kd [2]: 0.331 nM
- Neutralization IC50 (RSV subtype A) (RSV F on RSV-A2 virus): > 25 mg/L

B14: ADI-41768 (antibody, V domains shown)
VH: EVQLVESGGGLVQPGRSLRLSCAASGFTFGDYAMHWVRQAPGKGLEWVSGITWNSGRVVYADSVKGRFTISRDNAKNSLYLQINSLRAEDTALYYCVKGSCNGGICYSADYWGQGTLVTVSS
VL: NFMLTQPHSVSESPGKTVTISCTRSSGSIARNFVHWYQQRPGSSPTTVIYEDNQRPSGVPGRFSGSIDSSSNSASLTISGLRSEDEADYYCQSYDSDNWVFGGGTKLTVL
notes: also called Ab 900; Antibody Number 900
- Kd [1]: 0.338 nM
- Kd [2]: 1.61 nM
- Neutralization IC50 (RSV subtype A) (RSV F on RSV-A2 virus): > 25 mg/L

B15: ADI-41803 (antibody, V domains shown)
VH: RCTLQQWGAGRVKPSETLSLTCAVYRGPFSGYYWSWIRQPPGKGLEWIGEINLGETNPGGSTHYNPSLRSRLSMSIDTSKKQFSLRVNSVTAADTAVYYCTRGPVSRIYDTSGSYSLNYYGMDVWGQGTTVTVSS
VL: DIRMTQSPSSLSASVGDRVTITCRASQGIRNDLGWYQQKPGRAPERLIYPASSLQGGVPSRFIASGSGTEFTLTISNLQPEDFATYYCLQHNSYPRTFGQGTKVEIK
notes: also called Ab 912; Antibody Number 912
- Kd [1]: 0.711 nM
- Kd [2]: 1.99 nM
- Neutralization IC50 (RSV subtype A) (RSV F on RSV-A2 virus): > 25 mg/L

B16: ADI-41781 (antibody, V domains shown)
VH: QVQLVQSGAEVRKPGASVKVSCKAFGYTFTNFAISWVRQAPGQGLEWMGWIGPYNGDTDYEQKFQGRVTMTADTSSSTVFMELRSLRFDDTAVYYCARGKGSTIPLGYYIGMDVWGQGTTVTVSS
VL: ETTLTQSPSSLSASVGDRVTMTCRASQGISNYLAWYQQKPGKPPKLLIYLASSLQSGVPSRFSGSGSGTDFTLTISSLQPEDVATYYCQKYNSAPLTFGGGTKLEIK
- Kd [1]: 0.653 nM
- Kd [2]: 3.46 nM
- Neutralization IC50 (RSV subtype A) (RSV F on RSV-A2 virus): > 25 mg/L

B17: ADI-41555 (antibody, V domains shown)
VH: EVQLVESGPGLVKPSQTLSLTCSVSGGSISSGIHYWSWIRQHPGKGLEWIGYIYYSGSTYYNPSLESRITISVDTSKNQFSLKVSSVTAADTAVYYCARVNRASRMTTFGVANERSIYYFMDVWGKGTTVTVSS
VL: ETTLTQSPATLSLSPGERATLSCRATQSVGNYLAWYQQKPGQAPRLLIHDASNRATGIPARFSGSGSGTDFTLTISSLEPEDFAVYYCQLRINWLFTFGPGTKVEIK
- Kd [1]: 1.12 nM
- Kd [2]: 5.69 nM
- Neutralization IC50 (RSV subtype A) (RSV F on RSV-A2 virus): 25 mg/L

B18: ADI-41743 (antibody, V domains shown)
VH: EVQLVESGSGLVKPSQTLSLTCSVSGGSISSGGYSWSWIRQPPGKGLEWIGFIYNTGSTYSNPSLKSRLTLSVDRSNNRFSLKLNSVTAADTGVYFCARSGNVRQCDATGHCSTNYYFEYWGLGTLVTVSS
VL: EIVMTQSPATLSVSPGERATLSCRASQSVSSNLAWYQQKPGQAPRLLIYGASTRATGIPARFSGSGSGTEFTLTISSLQSEDFAVYYCQQHDDWPPLTFGGGTKVEIK
notes: also called Ab 898; Antibody Number 898
- Kd [1]: 1.27 nM
- Kd [2]: 5.45 nM
- Neutralization IC50 (RSV subtype A) (RSV F on RSV-A2 virus): > 25 mg/L

B19: ADI-41794 (antibody, V domains shown)
VH: EVQLQQWGAGLLKPSETLSLTCAVYGGSFSGYYWSWIRQPPGKGLEWIGEINHSGSTNYNPSLKSRVTISVDTSKNQFSLKLSSVTAADTAVYYCARGTRTIVYCDGDCYQPWAYHYYGMDVWGQGTTVTVSS
VL: QSVVTQEPSVSAAPGQKVTISCSGGSSNIGNNYVSWYQHLPGTAPKLLIYDNDKRPSGIPDRFSGSKSGTSATLGITGLQTGDEADYYCGTWDSSLSAVVFGGGTKLTVL
- Kd [1]: 3.01 nM
- Kd [2]: 3.31 nM
- Neutralization IC50 (RSV subtype A) (RSV F on RSV-A2 virus): > 25 mg/L
